Laboratory results published in the RNAGym collection of RNA variant scans (doi:10.1073/pnas.2313332121).

B1: TPR t1 (parent)
chain: GACCAAUCUGCCCUCAGAGCUCGAGAACAUCUUCGGAUGCAGAGGAGGCAGGCUUCGGUGGCGCGAUAGCGCCAACGUCCUCAACCUCCAAUGCAUCCCACCACAUGAUGAUGCCUGAAGAGCCUUGGUUUUUUG

Variants of: B1
Assay: polymerase ribozyme fitness, log enrichment relative to wild type (log ratio); higher = more active; in vitro selection for triplet polymerase activity
Method in brief: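 Only genotypes with ≥10 input reads and ≥1 read per output were kept after Illumina sequencing of input and output libraries. These libraries were PCR-built, transcribed mutants of each subunit of a heterodimeric triplet polymerase ribozyme, each put through one triplicate in vitro selection round with frozen incubation at −7 °C, gel excision of extended constructs, streptavidin-bead capture and RT-PCR. Fitness is a logarithmic ratio of genotype enrichment to wild-type enrichment, from inverse-variance-weighted replicate averages, with the logarithm in base 2.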

| Variant | polymerase ribozyme fitness (log ratio) |
| --- | --- |
| GACCAAACUGCCCUCAGAGCUCGAGAACAUCUUCGGAUGCAGAGGAGGCAGGCUUCGGUGGCGCGAUAGCGCCAACGUCCUCAACCUCCAAUGUUUCCCACCACAUGAUGAUGCCUGAAGAGUCUUUGUUUUUUG [U7A C94U A95U C123U G127U] | -1.38 |
| GACCAAACUGCCCUCAGAGCUCGAGAACAUCUUCGGAUGCAGAGGAGGCAGGCUUCGGUGGCGUGAUAGCGCCAACGUCCUCAACCUCCAAUGCAUCCCACCACAUGAUGAUGCCUGAAGAGCCUUGGUUUUUUG [U7A C64U] | -0.637 |
| GACCAAACUGCCCUCAGAUCUCGAGAACAUCUUCGGAUGCAGAGGAGGCAGGCUUCGGUGGCGCGAUAGCGCCAACGUCCUCAACCGCCAAUGCAUCCCACCACAUGAUGAUGCCUGAAGAGCCUUGGUUUUUUG [U7A G19U U87G] | -3.3 |
| GACCAAACUGCCCUCAGAGCUCGAGAACAUCUUCGGAUGCAGAGGAGGCAGGCUUCGGUGGCGCGAUAGCGCCAACGUCCUCAACCUCCAAUGCAUACCAUCACAUGAUGACGCCUGAAGAGCCUUGGUUUUUUG [U7A C97A C101U U112C] | -2.6 |
| GACCAAACUGCCCUCAGAGCUCGAGAACAUCUUCGGAUGCAGAGGAGGCAGGCUUCGGUGGCGCGAUAGCGUCAACGUCCUCAACCUCCACUGCAUCCCACCACAUGAUGAUGCCUGAAGAUCCUUGGUUUUUUG [U7A C72U A91C G122U] | -2.12 |
| GACCAAACUACCCUCAGAGCUCGAGAACAUCUUCGGAUGCAGAGGAGGCAGUCUUCGGUGGGGCGAUAGCGCCAACGUCCUCAACCUCCAAUGCAUCCCACCACAUGAUGAUGCCUGAAGAGCCUUGGUUUUUUG [U7A G10A G52U C62G] | -2.23 |
| GACCAAACUGCCCUCAGAGCUCGAGAACAUCUUCGGAUGCAGAGGAGGCAGGCUUCGGUGGGGCGAUAGCGCCAACGUCCUCAACCUCCAAUGCAUCCCACCACAUGAUGAUGCCUUAAGAGCCUUGGUUUUUUG [U7A C62G G117U] | -5.82 |
| GACCAAACUGCCCUCAGAGCUCGAGAACAUCUUCGGAUGCAGAGGAGGCAGGCUUCGGUGGCGCGAUAGCGCCAACGUCCUCAACCUGCAAUGCAUCCCACCACAUGAUGAUGCCUGAAGAGCCUUGGUUUUUUG [U7A C88G] | -0.397 |
| GACCAAACUGCCCUCAGAGCUCGAGAACAUCUUCGGAUGCAGAGGAGGCAGGCUUCGGUGGCGCGAUAGCGCGAACGUCCUGAACCUCCAAUGCAUCCCACCACAUGAUGAUGCCUGAAGAGCCUUGGUUUUUUG [U7A C73G C82G] | -1.56 |
| GACCAAACUGCCCUCAGAGCUCGAGAACAUCUUCGUAUGCAGAGUAGGCAGGCUUCGGUGGCGCGAUAGCGCCAACGUCCUCAACUUCCAAUGCAUCCCACCACAUGAUGAUGCCUGAAGAGCCUUGGUUUUUUG [U7A G36U G45U C86U] | -3.34 |
| GACCAAACUGCCCUCAGAGCUCGAGAACAUCUUCGGAUGCAGAGGAGGCAGGCUUCGGUGGCGCGAUAGAACCAACGUCCUCAACCUCCAAUGCAUCCCACCACAUGAUGAUGCCUGAAGAGCCUUGGUUUUUUG [U7A C70A G71A] | -2.52 |
| GACCAAACUGCCCUCAGAGCUCGAGAACAUCUUCGGAUGCAGAGGAGGUAGGCUUCGGUGGCGCGAUAGCUCCAACGUCCUCAACCUCCAAUGCAUCCCACCACAUGAUGAUGCCUGAAGAGCCUUGGUUUUUUG [U7A C49U G71U] | -0.851 |
| GACCAAACUGCCCUCAGAGCUCGAGAACAUCUUCGGAUGCAGAGGAGGCAGGCUUCGGUGGCGAGAUAGCGCCAACGUCCUCAACCUCCAAUGCCUCCCAACACAUGAUGAUGCCUGAAGAGUCUUGGUUUUUUG [U7A C64A A95C C101A C123U] | -6.03 |
| GACCAAACUCCCCUCAGAGCUCGAGAACAUCUUCGGAUGCAGAGGAGGCAGGCUUCGGUGGCGCGAUAGCGUCAACGUCCUCAACCUCCAAUGCAUCCCACCACAUGAUGAUGCCUGAAGAGCCUUGGUUUUUUG [U7A G10C C72U] | -0.8 |
| GACCAAACUACCCUCAGAGCUCGAGAAGAUCUUCGGAUGCAGAGGAGGCAGGCUUCGGUGGCGCGAUAGCGCAAACGUCCUCAACCUCCAAUGCAUCCCACCACAUGAAGAUGCCUGAGGAGGCUUGGUUUUUUG [U7A G10A C28G C73A U109A A119G C123G] | -5.03 |
| GACCAAACUGCCCUCAGAGCUCGAGAACAUCUUCGGAUGCAGAGGAGGCAGGCUUCGGUGGCGCGAUAGCGCCAACGUCCUCAACCUCGAUUGCAUUCCACCACAUGAUGAUGCUUGAAGAGCCUUGGUUUUUUG [U7A C89G A91U C97U C115U] | -1.85 |
| GACCAAACUGCCCUCAGAGCUCGAGAACAUCUUCGCGUGCAGAGGAGGCAGGCUUCGGUGGCGCGAUAGCGCCAACGUCCUCAACCUCCAAUGCAUUCCACCACAUGAUGAUCCCUGAAGAGCCUUGGUUUUUUG [U7A G36C A37G C97U G113C] | -3.07 |
| GACCAAACUGCCCUCAGAGCUCGAGAACAUCUUCGGAUGCAGAGGAGGCAGGCUUCGGUGGCGCGAUAGCGCCAACGUCUUCAACCUCCAAUGCAUCCUACCACAUGAUGAUGCCUGAAGAGCGUUGGUUUUUUG [U7A C80U C99U C124G] | -2.39 |
| GACCAAACUGCCCUCAGAGCUCGAGAACAUCUUCGGAUGCAGAGGAGGCAGGCUUCGGUGGCGAGAUAGCGCCAACGUCCUCAACCUCCAAUGCAUCCCACCACACGAUGAUGCCUGAAGAGCCUUGGUUUUUUG [U7A C64A U106C] | -5.95 |
| GACCAAACUGCCCUCAGAGCUCGAGAACAUCUUCGAAUGCAGUGGAGGCAGGCAUCGGUGGCGCGAUAGCGCCAACGUCCUCAACCUCCAAUGCAUCCCAUCACAUGAUGAAGCCUGAAGAGCCUUGGUUUUUUG [U7A G36A A43U U54A C101U U112A] | -6.85 |
| GACCAAACUGCCCUCAGAGCUCGAGAACAUCUUCGGAUGCAGAGGAGGCAGGCUUCGGUGGCGCGAUAGCGCCAACGUCCUCAACCUCCAAUGCAUCCCACCACAUGAUGAUGCCUGAAGAGCAUUGGUUUUUUG [U7A C124A] | 2.16 |
